# ± gives the uncertainty stated by the source.
# Test: protein stability index of a GFP-peptide fusion (yeast GPS) (PSI 1-4); higher = more stable; sorted into four equal gates, so the index is relative within each strain
# Method in brief: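 The protein stability index combines read frequencies across sorting gates, each weighted by its gate number and then summed. To obtain those frequencies, a pooled yeast library of GFP fusions to tiled 17-residue yeast protein peptides, on a plasmid also expressing Cherry, was grown to mid-log phase in leucine-free medium. The cells were sorted into four equal gates by GFP/Cherry ratio before plasmid amplification by PCR and Illumina sequencing.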
Sequence,protein stability index (doa10∆),protein stability index (pdr5∆),protein stability index (san1∆),protein stability index (ubr1∆)
IYDKKDHKYVCTFSMEP [SRB8],2.85 ± 0.076,2.99 ± 0.11,2.78 ± 0.06,3 ± 0.069
HIPICVTFSFFNPQDTE [RRP45],1.56 ± 0.048,1.61 ± 0.06,1.28 ± 0.1,1.58 ± 0.046
LWDVATGETYQRFVGHK [ASC1],2.98 ± 0.19,3.42 ± 0.17,1.59 ± 0.17,3.4 ± 0.094
TKIKDAEEDSLLSGEDL [YJL039C/NUP192],3.35 ± 0.16,3.45 ± 0.086,3.14 ± 0.16,3.38 ± 0.12
ICLYSSFQKNSLHNTEK [AAR2],1.99 ± 0.065,2.24 ± 0.058,2.57 ± 0.064,2.78 ± 0.057
DAFVATAFATEFFVQVL [DLS1],2.98 ± 0.089,3.03 ± 0.089,3.12 ± 0.077,3.09 ± 0.072
LLQSSIINKLIHIQSKE [POP3],2.49 ± 0.069,2.5 ± 0.044,1.91 ± 0.058,2.28 ± 0.048
NVLLLDSNGDFNEDQLF [RRP46],3.17 ± 0.064,3.04 ± 0.054,3.32 ± 0.055,3.17 ± 0.044
LPVMESLDSCTAAFTAM [YJR042W/NUP85],2.65 ± 0.085,2.37 ± 0.066,2.54 ± 0.071,2.37 ± 0.071
GKIEKIAQSKKKNNKIK [SRP21],3.11 ± 0.094,3.02 ± 0.078,3.01 ± 0.066,3.14 ± 0.057
RWDKEEYQSLMSLKDKL [SMC1],3.29 ± 0.076,3.31 ± 0.08,3.2 ± 0.11,3.09 ± 0.053
RVAKGSGTSVFEVEMIL [SRP54],3.28 ± 0.071,3.26 ± 0.099,3.39 ± 0.076,3.42 ± 0.12
RLGLIPLQSMDIEQLEY [RPB3],2.75 ± 0.067,2.92 ± 0.063,2.91 ± 0.088,2.72 ± 0.083
TANATAELNLPTVDEQR [SNF11],3.04 ± 0.035,3.14 ± 0.032,2.99 ± 0.043,3.147 ± 0.026
DDLKQKKEELVEIAYHK [RPO31],3.18 ± 0.16,3.13 ± 0.072,3.08 ± 0.14,3.08 ± 0.082
QLVIQQGTGKKTASLGN [ISW2],3.2 ± 0.24,2.83 ± 0.21,3.23 ± 0.21,3.41 ± 0.24
KKLEITSDGALSVMCGC [RPR2],2.63 ± 0.047,2.82 ± 0.054,2.8 ± 0.043,2.933 ± 0.029
FKERQMMVSYPKIDEDD [AAR2],3.28 ± 0.061,3.2 ± 0.055,3.19 ± 0.045,3.35 ± 0.043
DGNNEIFTCQIMNLITN [RPN4],2.09 ± 0.083,2.62 ± 0.18,2.35 ± 0.2,2.35 ± 0.25
DVKVIMATNKIETLDPA [RPT2],3.17 ± 0.091,2.96 ± 0.093,2.92 ± 0.07,2.9 ± 0.068
NLIGVITHQGANSESGH [UBP6],2.33 ± 0.12,3 ± 0.091,3.22 ± 0.069,3.07 ± 0.085
FADKKRDCIDISIFSTP [PRP8],3.2 ± 0.076,2.99 ± 0.072,2.87 ± 0.055,3.24 ± 0.068
DIINAVNEIMYKCTAAM [MTW1],2.73 ± 0.089,2.77 ± 0.1,2.84 ± 0.11,2.33 ± 0.072
KVVNFWLLHNGFSTGIG [RPO21],3.17 ± 0.16,2.25 ± 0.1,2.51 ± 0.13,1.37 ± 0.094
DCMIAHGAASFLKERLM [RPB2],3.03 ± 0.088,2.54 ± 0.068,2.13 ± 0.1,2.09 ± 0.066
SSFVRQELAKSIRSRRP [PRE1],2.08 ± 0.12,2.21 ± 0.074,1.78 ± 0.23,2.12 ± 0.065
EVDKSKLITTYISLLKL [YDL116W/NUP84],2.66 ± 0.08,1.45 ± 0.06,1.27 ± 0.13,1.43 ± 0.046

Sequence,protein stability index (doa10∆),protein stability index (pdr5∆),protein stability index (san1∆),protein stability index (ubr1∆)
EAAFRNIKTIAETLAEE [RPS5],2.79 ± 0.084,3.28 ± 0.076,3.25 ± 0.053,2.84 ± 0.046
EMIDSHIKEASEEVDDL [SNF2],–,2.81 ± 0.19,2.81 ± 0.094,3.09 ± 0.07
PITSETAMKKVEDGNIL [RPL25],3.05 ± 0.16,3.18 ± 0.095,3.12 ± 0.22,3.24 ± 0.15
TLILIQNPENLLSEKIL [SIR3],2.98 ± 0.062,2.88 ± 0.07,2.87 ± 0.046,3.16 ± 0.06
SYKRIYGEYPPTKLLVS [PRE8],2.87 ± 0.083,3.03 ± 0.085,2.75 ± 0.1,3.09 ± 0.06
ISVTDTEVERAKSLLKL [COR1],3.3 ± 0.1,3.26 ± 0.084,3.08 ± 0.053,3.24 ± 0.084
IQKGKFTLLDFKKQMQT [SRP54],1.27 ± 0.13,1.85 ± 0.22,1.07 ± 0.21,1.7 ± 0.29
RIMSRNFYLKRFISDLL [SWI1],2.32 ± 0.058,2.37 ± 0.074,2.08 ± 0.095,1.54 ± 0.034
LLSLINSTHLLPLQPIE [SNF12],2.34 ± 0.053,2.46 ± 0.05,3.04 ± 0.052,2.4 ± 0.04
CRRMILTHVDLIEKFLR [RPB10],2.85 ± 0.21,1.46 ± 0.11,–,2.04 ± 0.099
SYTDAQDKSKKIMNVTT [YMR129W/POM152],2.97 ± 0.1,2.66 ± 0.11,2.88 ± 0.056,3.03 ± 0.048
GLVKQHLDSFNYFVDTD [RET1],3.46 ± 0.17,3.05 ± 0.097,2.97 ± 0.11,3.36 ± 0.075
KLCYVLGVEDITLIDSA [RET1],1.58 ± 0.12,1.73 ± 0.25,1.26 ± 0.27,1.74 ± 0.07
RTKFVRSLVREIAGLSP [RPL36A],2.59 ± 0.19,2.71 ± 0.19,2.85 ± 0.086,2.92 ± 0.09
SNLAATKSMVKIAEQYS [RPN11],2.83 ± 0.075,2.73 ± 0.064,3.04 ± 0.051,2.98 ± 0.063
EYYAKKRAFTKKVASAN [RPL16A],2.06 ± 0.081,1.7 ± 0.063,1.69 ± 0.11,1.57 ± 0.059
TKLGFTFTIKEFVSYYY [SNU114],1.88 ± 0.054,2.02 ± 0.054,1.73 ± 0.067,1.76 ± 0.041
HRIGQKKQVHVYRFVTE [ISW2],2.14 ± 0.054,2.33 ± 0.051,2.28 ± 0.075,2.12 ± 0.038
DNMITGVTKGYKYKMRY [RPL9A],3.07 ± 0.096,3.3 ± 0.14,2.92 ± 0.27,3.1 ± 0.067
VGQAGRPKKITGWITQS [RPN1],1.99 ± 0.059,2.27 ± 0.075,2.21 ± 0.12,2 ± 0.044
GAAFKVISNLVPKLESS [YJL039C/NUP192],2.86 ± 0.16,2.59 ± 0.11,2.58 ± 0.24,2.18 ± 0.12
PKNIEPPLTSQYSTRHD [SWI3],3.07 ± 0.048,3.02 ± 0.059,3.04 ± 0.041,3.03 ± 0.042
SGITGECLQAYIFFGPI [RET1],2.6 ± 0.059,2.72 ± 0.064,2.64 ± 0.076,2.79 ± 0.051
KEKAPTIIFIDELDAIG [RPT5],2.57 ± 0.068,2.35 ± 0.041,1.85 ± 0.11,2.4 ± 0.052
GTPPMLHQRTHKQVYPL [DSN1],2.52 ± 0.1,2.87 ± 0.069,2.77 ± 0.071,2.93 ± 0.056
ETIIEADKSLPSSMATL [YJR042W/NUP85],2.75 ± 0.083,2.85 ± 0.061,3 ± 0.046,2.91 ± 0.055

# From the supplement of paper PMC9732359
